Data published in IntAct's records for PubMed 26053850.

B1: ADP-ribosylation factor-binding protein GGA1 (Homo sapiens), Q9UJY5 (parent)
chain: MEPAMEPETLEARINRATNPLNKELDWASINGFCEQLNEDFEGPPLATRLLAHKIQSPQEWEAIQALTVLETCMKSCGKRFHDEVGKFRFLNELIKVVSPKYLGSRTSEKVKNKILELLYSWTVGLPEEVKIAEAYQMLKKQGIVKSDPKLPDDTTFPLPPPRPKNVIFEDEEKSKMLARLLKSSHPEDLRAANKLIKEMVQEDQKRMEKISKRVNAIEEVNNNVKLLTEMVMSHSQGGAAAGSSEDLMKELYQRCERMRPTLFRLASDTEDNDEALAEILQANDNLTQVINLYKQLVRGEEVNGDATAGSIPGSTSALLDLSGLDLPPAGTTYPAMPTRPGEQASPEQPSASVSLLDDELMSLGLSDPTPPSGPSLDGTGWNSFQSSDATEPPAPALAQAPSMESRPPAQTSLPASSGLDDLDLLGKTLLQQSLPPESQQVRWEKQQPTPRLTLRDLQNKSSSCSSPSSSATSLLHTVSPEPPRPPQQPVPTELSLASITVPLESIKPSNILPVTVYDQHGFRILFHFARDPLPGRSDVLVVVVSMLSTAPQPIRNIVFQSAVPKVMKVKLQPPSGTELPAFNPIVHPSAITQVLLLANPQKEKVRLRYKLTFTMGDQTYNEMGDVDQFPPPETWGSL

Variants of: B1
Conditions: with bace1_human BACE1, P56817
Chain of bace1_human BACE1, P56817 (P56817 whole entry): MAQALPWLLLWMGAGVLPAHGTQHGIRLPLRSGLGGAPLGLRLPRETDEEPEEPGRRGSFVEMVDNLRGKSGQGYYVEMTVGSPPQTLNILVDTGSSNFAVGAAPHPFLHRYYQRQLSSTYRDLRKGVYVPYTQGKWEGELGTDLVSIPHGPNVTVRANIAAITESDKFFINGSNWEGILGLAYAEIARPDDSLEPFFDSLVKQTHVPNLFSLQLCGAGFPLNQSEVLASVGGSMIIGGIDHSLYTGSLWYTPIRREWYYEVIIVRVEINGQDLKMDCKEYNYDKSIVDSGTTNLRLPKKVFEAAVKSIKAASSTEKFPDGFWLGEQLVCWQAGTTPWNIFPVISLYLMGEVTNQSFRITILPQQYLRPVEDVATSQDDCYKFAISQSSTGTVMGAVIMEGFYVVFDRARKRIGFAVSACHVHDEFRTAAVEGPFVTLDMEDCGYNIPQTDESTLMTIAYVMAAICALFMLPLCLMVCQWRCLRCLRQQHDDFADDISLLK

Variant	effect of a mutation on the interaction
S355A	with no effect
S355D	with no effect
